Assay results as given in the supplement of paper PMC12042874.
± gives the uncertainty stated by the source.

Assay: amyloid nucleation score (Sup35N fusion, yeast selection) (log enrichment); library NNK3; higher = more nucleation; inactive = no reads after selection
Method in brief: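 Libraries of peptides of 20 random codons fused to Sup35N were expressed in psi-negative yeast and induced 24 hours with 100 μM copper sulfate. Selection was 7 days at 30°C on medium lacking adenine and uracil, and plasmid inserts were Illumina-sequenced before and after selection. Nucleation score is the DiMSum log enrichment of output over input reads, centred on the mode score of non-aggregating sequences, and sequences with under 100 input reads were left out.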

Row | Substance | amyloid nucleation score
1 | HCCFVWERRNACGMVSSWMT | inactive
2 | HCFLRMWKLLRTYLQVVLET | inactive
3 | HCSQLFESTYKRMSHISRDL | -0.56 ± 0.73
4 | HCSWTSSAHEGPYAETGHWQ | 0.557 ± 0.24
5 | HCYWLVGSWRYFTALFEGGL | inactive
6 | HDIDGCIVRKSLYNGRGPLL | inactive
7 | HDMVREVDPILFMTLFRGGF | -0.517 ± 1.2
8 | HDYYLLLLTATL | inactive
9 | HECKYFGVCGRSQGNRSWVA | inactive
10 | HEIQGC | inactive
11 | HEVCS | inactive
12 | HEYSSKILMM | inactive
13 | HFHFLGCDSLGIVVGEWSDH | 0.94 ± 0.18
14 | HFLFVMSCPKWAVRFLAFVD | inactive
15 | HFLMFMRIIWVLRCPQVESP | inactive
16 | HFLRRTDFYTANWA | inactive
17 | HFRYY | inactive
18 | HFSLSG | inactive
19 | HGFEIDTRTDSRQAVNCMCC | inactive
20 | HGHDNVEDTCLRFSPAGLST | inactive
21 | HGIDKGLDVDETR | inactive
22 | HGIGFDDVASG | -0.045 ± 0.88
23 | HGLRALLRSLSLYLVLCFTV | inactive
24 | HGNRVFYFELHSYPVLDSAM | 0.984 ± 0.17
25 | HGSAWHSISEVVTIIRACGF | inactive
26 | HHIMIATLSG | 0.711 ± 0.12
27 | HHLNSYFRISFI | inactive

Row | Substance | amyloid nucleation score
28 | HILVKITR | 0.359 ± 0.71
29 | HITGNGPHLRYCARQVLWSL | inactive
30 | HIYIVKSVCILCIWPCGLTE | 2.86 ± 0.058
31 | HKGALVWYFYCRANFADYLY | inactive
32 | HLLPLYTKSIVGYTTNAIPN | inactive
33 | HLRCFKMKFNSHFLVWGAGA | inactive
34 | HLRETCCRWDVLCVDSLLV | inactive
35 | HLRVMLLCFREYWDYAIMAL | inactive
36 | HLVYWVIHDLYMTI | 0.303 ± 0.33
37 | HMIGRCLVGIESYRW | inactive
38 | HMKPSMLYITVCRWFKFY | inactive
39 | HMLHVWYFLGRQYANTFCYM | inactive
40 | HMRIGNESWVIGCQ | 0.132 ± 0.75
41 | HMSQLTLYCCAKIRKVVPLL | inactive
42 | HNSCGGY | inactive
43 | HPCPK | inactive
44 | HPHTHVR | inactive
45 | HPSQIKKVAFHYVRICSKWL | inactive
46 | HPTFHSHDRGR | inactive
47 | HPVKLILILIWPAFERSRCG | inactive
48 | HPVYMVSTRWRRGGSDWV | inactive
49 | HQFFVVNSRDWLGHSSKFRF | 0.814 ± 0.12
50 | HQISVVCGTNMRNGCFRSLC | inactive
51 | HQNSCDMLFRLSSTYLWGRA | inactive
52 | HQSNFGDMSLVSNGSFRKAK | inactive
53 | HRFAGTKVALYGVKLGGARY | inactive
54 | HRGLWTKATSLYYPFEMWMV | inactive

Row | Substance | amyloid nucleation score
55 | HRGYAAFFS | inactive
56 | HRLCSHYVFTGCPSNMRQCF | 0.083 ± 0.28
57 | HRPGFAGGHLWTVFKYVR | inactive
58 | HRSRISTWMWG | inactive
59 | HSATASFHAADWSLKFMDGP | 0.326 ± 0.23
60 | HSDVWSVRSGAYLLLYIQTM | inactive
61 | HSFIYVLDVLNVR | inactive
62 | HSFTAMLICSAYASAARYLR | inactive
63 | HSFVSWTRLT | inactive
64 | HSLLMCSMLLRFYVQYPICI | inactive
65 | HSLVVPIPSPILRVLKE | inactive
66 | HSMNHFIWLVFKMVSYVACV | inactive
67 | HSRRHCFLVSWE | inactive
68 | HSRYLMQLYVNSFSRFD | 1.28 ± 0.12
69 | HSVGWHFPLCFSTQMTLVRS | inactive
70 | HSVPLPMLYFHYNMILLMLL | inactive
71 | HSVWVYKHGLCDMWGGLTLI | inactive
72 | HTHVSTTTGIFSDRICEW | inactive
73 | HTMAHWITKEAAFLI | inactive
74 | HTWTWDIII | 0.065 ± 0.23
75 | HVFYPALI | inactive
76 | HVGLRAKLTFLDRVYLSILS | inactive
77 | HVPYIHRIFIWTYK | inactive
78 | HVQYLLHKFLTLVQMF | inactive
79 | HVRDTKRVSLKRSTYADRGG | inactive
